B1: SMTNL2 (parent)
chain: ETAAGKGKGEARARLKRSQSFGVA

Variants of: B1
Experiment: protein stability index of a GFP-peptide fusion (GPS, HEK-293T) (PSI 1-6); higher = more stable
Conditions: c terminus: a fixed tail appended
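Further: lentivirally expressed fusions sorted by FACS into six bins by GFP to DsRed ratio, PSI derived from sequencing read proportions per bin multiplied by bin number.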

Protein stability index: each site, then its substitutions
L15: T 3.83 | I 4.51 | H 4.44 | D 4.03 | Y 4.09
A3: K 4.38 | W 4.27 | H 4.31 | D 4.72 | L 4.8 | T 4.65 | R 4.1
R14: D 4.82 | I 4.27 | Y 4.09 | V 4.25 | F 4.18 | L 4.29
S18: M 3.69 | D 4.46 | N 4.5 | Q 4.43 | K 4.43 | L 3.49 | C 3.81
R17: M 4.09 | G 4.24 | V 3.59 | D 4.31 | H 4.54 | T 4.17
A4: S 4.02 | H 4.3 | R 4.46 | E 5.09
A24: S 4.65 | E 4.71 | V 4.01 | Y 3.72 | D 4.9 | W 3.57 | K 4.41 | H 4.27
G9: F 4.12 | W 3.27 | N 4.56 | C 4.21 | P 4.43 | Y 4.42 | K 4.21 | D 4.53 | T 3.6 | V 4.26
K8: I 4.12 | M 4.66
A13: G 4.78 | Q 4.38 | S 4.67 | E 4.95
E1: K 3.82 | I 3.58 | M 3.88 | S 4.48 | R 3.82 | P 4.09
K6: F 4.56 | N 4.32 | W 3.79 | Q 3.41 | M 3.87 | I 4.54 | D 4.85 | L 4.04 | A 4.62
E10: M 4.44 | G 4.49 | N 4.21 | R 4.53 | A 4.33
Q19: N 4.89 | P 4.45 | S 3.19
G5: W 4.06 | Y 4.07 | D 3.84 | P 4.52 | T 4.38 | I 3.91 | Q 4.39 | N 4.58 | M 3.93 | C 4.41
S20: Y 3.98 | W 3.02 | K 4.69 | H 4.26 | P 4.27
G22: P 5.71 | L 4.1 | T 4.31 | A 4.2 | Y 3.84 | D 5.1
V23: C 4.83 | Q 4.94 | M 4.84 | K 4.95 | A 5.1 | N 4.68 | S 5.17
R12: H 4.45
T2: A 4.74 | I 4.11 | N 4.86 | M 4.65 | F 4.46 | C 4.53 | Q 4.55
K16: N 4.46 | C 3.77 | M 3.83 | L 3.62 | R 4.4 | Q 4.21
A11: P 4.46 | W 3.65 | C 3.96 | M 4.19 | V 4.02 | L 4.5 | Y 4.06
G7: I 4.17 | C 3.48 | V 4.01 | D 4.75 | Y 4.2 | Q 4.46 | T 4.48 | M 3.73
F21: Y 4.65 | E 5.45 | S 5.07 | K 5.23 | P 5.12 | I 5.28 | A 5.25
